Patent publication US20220298218A1 (ANTAG THERAPEUTICS, published 2022)
Where no end group is shown, it is not given here. [ ]: non-standard residue; d: D form. The star is where a group is joined. phenyl lactic acid = phenyl lactic acid at the N-terminus; C16 diacid = O=C(O)CCCCCCCCCCCCCCC(=O)*; Nle = CCCC[C@H](N)C(=O)O; Aib = CC(C)(N)C(=O)O

Molecular target: T1, human GIP receptor (human, UniProt P48546 22-466)
T1 sequence (looked up): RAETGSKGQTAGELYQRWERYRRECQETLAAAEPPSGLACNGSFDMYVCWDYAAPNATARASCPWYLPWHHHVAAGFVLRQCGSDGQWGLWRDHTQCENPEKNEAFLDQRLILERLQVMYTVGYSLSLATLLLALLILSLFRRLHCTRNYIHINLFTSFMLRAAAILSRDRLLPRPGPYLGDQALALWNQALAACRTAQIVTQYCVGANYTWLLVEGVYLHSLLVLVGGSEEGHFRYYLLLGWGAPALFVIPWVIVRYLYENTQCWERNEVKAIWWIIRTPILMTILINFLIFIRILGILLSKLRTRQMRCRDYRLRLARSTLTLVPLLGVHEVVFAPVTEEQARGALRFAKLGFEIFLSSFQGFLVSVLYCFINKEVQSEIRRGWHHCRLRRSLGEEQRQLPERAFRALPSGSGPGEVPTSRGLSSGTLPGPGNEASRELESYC
Experiment: cell-based or functional assay

B1: AT669 (peptide)
peptide: EGTFISDYSIA[Nle]DKIK(C16 diacid)QQDFVEWLLAQKPSSGAPPPS-OH
modifications: N-terminus assumed
SMILES: CCCC[C@H](NC(=O)[C@H](C)NC(=O)[C@@H](NC(=O)[C@H](CO)NC(=O)[C@H](Cc1ccc(O)cc1)NC(=O)[C@H](CC(=O)O)NC(=O)[C@H](CO)NC(=O)[C@@H](NC(=O)[C@H](Cc1ccccc1)NC(=O)[C@@H](NC(=O)CNC(=O)[C@@H](N)CCC(=O)O)[C@@H](C)O)[C@@H](C)CC)[C@@H](C)CC)C(=O)N[C@@H](CC(=O)O)C(=O)N[C@@H](CCCCN)C(=O)N[C@H](C(=O)N[C@@H](CCCCNC(=O)CCCCCCCCCCCCCCC(=O)O)C(=O)N[C@@H](CCC(N)=O)C(=O)N[C@@H](CCC(N)=O)C(=O)N[C@@H](CC(=O)O)C(=O)N[C@@H](Cc1ccccc1)C(=O)N[C@H](C(=O)N[C@@H](CCC(=O)O)C(=O)N[C@@H](Cc1c[nH]c2ccccc12)C(=O)N[C@@H](CC(C)C)C(=O)N[C@@H](CC(C)C)C(=O)N[C@@H](C)C(=O)N[C@@H](CCC(N)=O)C(=O)N[C@@H](CCCCN)C(=O)N1CCC[C@H]1C(=O)N[C@@H](CO)C(=O)N[C@@H](CO)C(=O)NCC(=O)N[C@@H](C)C(=O)N1CCC[C@H]1C(=O)N1CCC[C@H]1C(=O)N1CCC[C@H]1C(=O)N[C@@H](CO)C(=O)O)C(C)C)[C@@H](C)CC
- cAMP agonism % Emax: 0%
- cAMP antagonism: 3.35 nM
- cAMP antagonism % inhib: 95%
- cAMP antagonism pIC50: 8.5

Binder: EGTFISDYSI[Aib][Nle]DKIK(C16 diacid)QQDFVEWLLAQKPSSGAPPPS-OH [AT667]
- cAMP agonism % Emax: 4%
- cAMP antagonism: 0.736 nM
- cAMP antagonism % inhib: 86%
- cAMP antagonism pIC50: 9.1

Binder: EGTFISDYSI[Aib]MDKIK(C16 diacid)QQDFVEWLLAQKPSSGAPPPS-OH [AT665]
- cAMP agonism % Emax: 0%
- cAMP antagonism: 0.15 nM
- cAMP antagonism % inhib: 88%
- cAMP antagonism pIC50: 9.8

B2: AT673 (peptide)
peptide: EGTFISEYSI[Aib]LEKIK(C16 diacid)QQEFVEWLLAQKPSSGAPPPS-OH
modifications: N-terminus assumed
SMILES: CC[C@H](C)[C@H](NC(=O)[C@H](CCCCN)NC(=O)[C@H](CCC(=O)O)NC(=O)[C@H](CC(C)C)NC(=O)C(C)(C)NC(=O)[C@@H](NC(=O)[C@H](CO)NC(=O)[C@H](Cc1ccc(O)cc1)NC(=O)[C@H](CCC(=O)O)NC(=O)[C@H](CO)NC(=O)[C@@H](NC(=O)[C@H](Cc1ccccc1)NC(=O)[C@@H](NC(=O)CNC(=O)[C@@H](N)CCC(=O)O)[C@@H](C)O)[C@@H](C)CC)[C@@H](C)CC)C(=O)N[C@@H](CCCCNC(=O)CCCCCCCCCCCCCCC(=O)O)C(=O)N[C@@H](CCC(N)=O)C(=O)N[C@@H](CCC(N)=O)C(=O)N[C@@H](CCC(=O)O)C(=O)N[C@@H](Cc1ccccc1)C(=O)N[C@H](C(=O)N[C@@H](CCC(=O)O)C(=O)N[C@@H](Cc1c[nH]c2ccccc12)C(=O)N[C@@H](CC(C)C)C(=O)N[C@@H](CC(C)C)C(=O)N[C@@H](C)C(=O)N[C@@H](CCC(N)=O)C(=O)N[C@@H](CCCCN)C(=O)N1CCC[C@H]1C(=O)N[C@@H](CO)C(=O)N[C@@H](CO)C(=O)NCC(=O)N[C@@H](C)C(=O)N1CCC[C@H]1C(=O)N1CCC[C@H]1C(=O)N1CCC[C@H]1C(=O)N[C@@H](CO)C(=O)O)C(C)C
- cAMP agonism % Emax: 0%
- cAMP antagonism: 0.136 nM
- cAMP antagonism % inhib: 94%
- cAMP antagonism pIC50: 9.9

Binder: {phenyl lactic acid}-PGTFISDYSIAMDKIKQQDFVNWLLAQKPSSGAPPPSK(C16 diacid)-NH2 (not fully specified) [AT652]
- cAMP agonism % Emax: 17%
- cAMP antagonism: 10.6 nM
- cAMP antagonism % inhib: 60%
- cAMP antagonism pIC50: 8

B3: AT670 (peptide)
peptide: EGTFISDYSIAKDKIK(C16 diacid)QQDFVEWLLAQKPSSGAPPPS-OH
modifications: N-terminus assumed
SMILES: CC[C@H](C)[C@H](NC(=O)[C@H](CO)NC(=O)[C@H](Cc1ccc(O)cc1)NC(=O)[C@H](CC(=O)O)NC(=O)[C@H](CO)NC(=O)[C@@H](NC(=O)[C@H](Cc1ccccc1)NC(=O)[C@@H](NC(=O)CNC(=O)[C@@H](N)CCC(=O)O)[C@@H](C)O)[C@@H](C)CC)C(=O)N[C@@H](C)C(=O)N[C@@H](CCCCN)C(=O)N[C@@H](CC(=O)O)C(=O)N[C@@H](CCCCN)C(=O)N[C@H](C(=O)N[C@@H](CCCCNC(=O)CCCCCCCCCCCCCCC(=O)O)C(=O)N[C@@H](CCC(N)=O)C(=O)N[C@@H](CCC(N)=O)C(=O)N[C@@H](CC(=O)O)C(=O)N[C@@H](Cc1ccccc1)C(=O)N[C@H](C(=O)N[C@@H](CCC(=O)O)C(=O)N[C@@H](Cc1c[nH]c2ccccc12)C(=O)N[C@@H](CC(C)C)C(=O)N[C@@H](CC(C)C)C(=O)N[C@@H](C)C(=O)N[C@@H](CCC(N)=O)C(=O)N[C@@H](CCCCN)C(=O)N1CCC[C@H]1C(=O)N[C@@H](CO)C(=O)N[C@@H](CO)C(=O)NCC(=O)N[C@@H](C)C(=O)N1CCC[C@H]1C(=O)N1CCC[C@H]1C(=O)N1CCC[C@H]1C(=O)N[C@@H](CO)C(=O)O)C(C)C)[C@@H](C)CC
- cAMP agonism % Emax: 0%
- cAMP antagonism: 10 nM
- cAMP antagonism % inhib: 92%
- cAMP antagonism pIC50: 8

B4: AT650 (peptide)
peptide: EGTFISDYSIAMDKIK(C16 diacid)QQDFVNWLLAQKPSSGAPPPS-NH2
modifications: N-terminus assumed
SMILES: CC[C@H](C)[C@H](NC(=O)[C@H](CO)NC(=O)[C@H](Cc1ccc(O)cc1)NC(=O)[C@H](CC(=O)O)NC(=O)[C@H](CO)NC(=O)[C@@H](NC(=O)[C@H](Cc1ccccc1)NC(=O)[C@@H](NC(=O)CNC(=O)[C@@H](N)CCC(=O)O)[C@@H](C)O)[C@@H](C)CC)C(=O)N[C@@H](C)C(=O)N[C@@H](CCSC)C(=O)N[C@@H](CC(=O)O)C(=O)N[C@@H](CCCCN)C(=O)N[C@H](C(=O)N[C@@H](CCCCNC(=O)CCCCCCCCCCCCCCC(=O)O)C(=O)N[C@@H](CCC(N)=O)C(=O)N[C@@H](CCC(N)=O)C(=O)N[C@@H](CC(=O)O)C(=O)N[C@@H](Cc1ccccc1)C(=O)N[C@H](C(=O)N[C@@H](CC(N)=O)C(=O)N[C@@H](Cc1c[nH]c2ccccc12)C(=O)N[C@@H](CC(C)C)C(=O)N[C@@H](CC(C)C)C(=O)N[C@@H](C)C(=O)N[C@@H](CCC(N)=O)C(=O)N[C@@H](CCCCN)C(=O)N1CCC[C@H]1C(=O)N[C@@H](CO)C(=O)N[C@@H](CO)C(=O)NCC(=O)N[C@@H](C)C(=O)N1CCC[C@H]1C(=O)N1CCC[C@H]1C(=O)N1CCC[C@H]1C(=O)N[C@@H](CO)C(N)=O)C(C)C)[C@@H](C)CC
- cAMP agonism % Emax: 0%
- cAMP antagonism: 3.69 nM
- cAMP antagonism % inhib: 94%
- cAMP antagonism pIC50: 8.4

B5: AT668 (peptide)
peptide: EGTFISDYSIALDKIK(C16 diacid)QQDFVEWLLAQKPSSGAPPPS-OH
modifications: N-terminus assumed
SMILES: CC[C@H](C)[C@H](NC(=O)[C@H](CO)NC(=O)[C@H](Cc1ccc(O)cc1)NC(=O)[C@H](CC(=O)O)NC(=O)[C@H](CO)NC(=O)[C@@H](NC(=O)[C@H](Cc1ccccc1)NC(=O)[C@@H](NC(=O)CNC(=O)[C@@H](N)CCC(=O)O)[C@@H](C)O)[C@@H](C)CC)C(=O)N[C@@H](C)C(=O)N[C@@H](CC(C)C)C(=O)N[C@@H](CC(=O)O)C(=O)N[C@@H](CCCCN)C(=O)N[C@H](C(=O)N[C@@H](CCCCNC(=O)CCCCCCCCCCCCCCC(=O)O)C(=O)N[C@@H](CCC(N)=O)C(=O)N[C@@H](CCC(N)=O)C(=O)N[C@@H](CC(=O)O)C(=O)N[C@@H](Cc1ccccc1)C(=O)N[C@H](C(=O)N[C@@H](CCC(=O)O)C(=O)N[C@@H](Cc1c[nH]c2ccccc12)C(=O)N[C@@H](CC(C)C)C(=O)N[C@@H](CC(C)C)C(=O)N[C@@H](C)C(=O)N[C@@H](CCC(N)=O)C(=O)N[C@@H](CCCCN)C(=O)N1CCC[C@H]1C(=O)N[C@@H](CO)C(=O)N[C@@H](CO)C(=O)NCC(=O)N[C@@H](C)C(=O)N1CCC[C@H]1C(=O)N1CCC[C@H]1C(=O)N1CCC[C@H]1C(=O)N[C@@H](CO)C(=O)O)C(C)C)[C@@H](C)CC
- cAMP agonism % Emax: 0%
- cAMP antagonism: 0.944 nM
- cAMP antagonism % inhib: 92%
- cAMP antagonism pIC50: 9
